In article PMC5730761, “NS3 from Hepatitis C Virus Strain JFH-1 Is an Unusually Robust Helicase That Is Primed To Bind and Unwind Viral RNA” one finds Kd data, which are given here for 4 molecules.

The target of data set [1] is T1, gt1b NS3 (Hepatitis C virus genotype 1b strain N, UniProt Q9WPH5 1028-1658). The experiment in a line: filter binding; 3 mM Mg2+; (stopped-flow kon 13 uM-1 s-1, Fig 2A); 25 mM MOPS-NH4+ pH 6.5, 3 mM MgCl2, 30 mM NaCl, 1% glycerol, 2 mM DTT, 0.1% Triton X-100; filter binding 37 C, 0.5 nM RNA, Hill fit; stopped flow 25 C. Conditions: protein: recombinant; tags: His6-SUMO removed (native N terminus); 5' Cy3 top strand via C3 amino linker (stopped flow); 3' overhang 18 nt on strand 1.

In data set [2] the target is T2, JFH-1 NS3 (Hepatitis C virus genotype 2a strain …, UniProt Q99IB8 1031-1661). In words: filter binding; 3 mM Mg2+; (stopped-flow kon 59 uM-1 s-1, Fig 2A); 25 mM MOPS-NH4+ pH 6.5, 3 mM MgCl2, 30 mM NaCl, 1% glycerol, 2 mM DTT, 0.1% Triton X-100; filter binding 37 C, 0.5 nM RNA, Hill fit; stopped flow 25 C. Conditions: protein: recombinant; tags: His6-SUMO removed (native N terminus); 5' Cy3 top strand via C3 amino linker (stopped flow); 3' overhang 18 nt on strand 1.

Data set [3] has as its target T1, gt1b NS3. The experiment in a line: filter binding; 3 mM Mg2+; (stopped-flow kon 9.9 uM-1 s-1, Fig 2B); 25 mM MOPS-NH4+ pH 6.5, 3 mM MgCl2, 30 mM NaCl, 1% glycerol, 2 mM DTT, 0.1% Triton X-100; filter binding 37 C, 0.5 nM RNA, Hill fit; stopped flow 25 C. Conditions: protein: recombinant; tags: His6-SUMO removed (native N terminus); 5' Cy3 top strand via C3 amino linker (stopped flow); 3' overhang 12 nt on strand 1.

The target in data set [4] is T2, JFH-1 NS3. In words: filter binding; 3 mM Mg2+; (stopped-flow kon 69 uM-1 s-1, Fig 2B); 25 mM MOPS-NH4+ pH 6.5, 3 mM MgCl2, 30 mM NaCl, 1% glycerol, 2 mM DTT, 0.1% Triton X-100; filter binding 37 C, 0.5 nM RNA, Hill fit; stopped flow 25 C. Conditions: protein: recombinant; tags: His6-SUMO removed (native N terminus); 5' Cy3 top strand via C3 amino linker (stopped flow); 3' overhang 12 nt on strand 1.

In data set [5] the target is T2, JFH-1 NS3. In words: filter binding; 3 mM Mg2+; (stopped-flow kon 15 uM-1 s-1, Fig 2C); 25 mM MOPS-NH4+ pH 6.5, 3 mM MgCl2, 30 mM NaCl, 1% glycerol, 2 mM DTT, 0.1% Triton X-100; filter binding 37 C, 0.5 nM RNA, Hill fit; stopped flow 25 C. Conditions: protein: recombinant; tags: His6-SUMO removed (native N terminus); 5' Cy3 top strand via C3 amino linker (stopped flow); 3' overhang 6 nt on strand 1.

For data set [6], the target named is T1, gt1b NS3. In words: filter binding; 3 mM Mg2+; (stopped-flow kon 3.5 uM-1 s-1, Fig 2C); 25 mM MOPS-NH4+ pH 6.5, 3 mM MgCl2, 30 mM NaCl, 1% glycerol, 2 mM DTT, 0.1% Triton X-100; filter binding 37 C, 0.5 nM RNA, Hill fit; stopped flow 25 C. Conditions: protein: recombinant; tags: His6-SUMO removed (native N terminus); 5' Cy3 top strand via C3 amino linker (stopped flow); 3' overhang 6 nt on strand 1.

For data set [7], the target named is T2, JFH-1 NS3. In words: filter binding; 3 mM Mg2+; legend names NS3-4A; 25 mM MOPS-NH4+ pH 6.5, 3 mM MgCl2, 30 mM NaCl, 1% glycerol, 2 mM DTT, 0.1% Triton X-100; filter binding 37 C, 0.5 nM RNA, Hill fit; stopped flow 25 C. Conditions: protein: recombinant; tags: His6-SUMO removed (native N terminus); label: 5'-32P.
Data set [8] addresses T1, gt1b NS3. The description is as above. Conditions: protein: recombinant; tags: His6-SUMO removed (native N terminus); label: 5'-32P.

B1: 12bp/18-OH (dsRNA)
RNA 1: CGGCAGCGAGGCAGAGGAGCAGAGGGAGCA
RNA 2: GCCUCGCUGCCG
For the molecule B1, the Kd in data set [1] turned out to be 7.25 ± 0.17 nM; in data set [2], 6.56 ± 0.23 nM.

B2: 12bp/12-OH (dsRNA)
RNA 1: CGGCAGCGAGGCAGAGGAGCAGCA
RNA 2: GCCUCGCUGCCG
On to B2, for which the Kd was determined as 15.7 ± 0.61 nM in data set [3] and 7.69 ± 0.21 nM in data set [4].

B3: 12bp/6-OH (dsRNA)
RNA 1: CGGCAGCGAGGCAGGACA
RNA 2: GCCUCGCUGCCG
Take B3: the Kd in data set [5] amounted to 14.9 ± 0.52 nM; in data set [6], 60.4 ± 4.38 nM.

B4: ssT34 (ssRNA)
RNA: CUGUGGCAUGUCCUAGCGUCGUAUCGAUCUGGUC
In the case of B4, the results for the Kd in data set [7] and in data set [8] were 8.36 ± 0.29 nM and 7.56 ± 0.33 nM, respectively.
